In this assay the target is RopC-U (thiazoline-containing product of the reaction of RopC with MicD-F) (UniProt P03051). Description: SEC. For orientation: Size exclusion chromatography separates by hydrodynamic size, large species first.

One may read the stoichiometry N as a count of units in the complex or per binding partner. For the substance “RopC-U (thiazoline-containing product of the reaction of RopC with MicD-F) (from UniProt P03051 1-63) (natural protein)”, the stoichiometry N was determined as 2.
